Results reported in publication PMC10540840, “PET imaging with [^68Ga]-labeled TGFβ-targeting peptide in a mouse PANC-1 tumor model” (Frontiers in Oncology, 2023).
Peptide text beside a SMILES is read from it. * marks the point of attachment. DOTA = O=C(O)CN1CCN(CC(=O)O)CCN(CC(=O)*)CCN(CC(=O)O)CC1; PEG3 = NCCOCCOCCOCCC(=O)O

Legend:
in vivo [1] = conditions: nude, mouse, iv, 1 mg/kg, total radioactivity
Experimental: (§1) Pancreatic cancer cell line PANC-1 was obtained from the ATCC, and cells were cultured in complete RPMI1640 medium supplemented with 10% fetal calf serum (Life Technologies, Carlsbad, CA, USA). One portion of the PANC-1 cells (~1 × 10^6) was injected subcutaneously below the anterior axillary of the nude mice to induce the mouse heterotopic tumor model. The tumor cells were suspended in a mixture (v/v, 1:1) of medium and Matrigel (Corning Life Sciences, Corning, NY, USA). The tumor xenografts were generally palpable within 10 days after injection. Xenograft tumor sizes of the model mice were measured every 3 days. Short and long tumor diameters, tumor volume, and body weight were measured. When the xenograft tumor grew to a volume of 150–200 mm^3, the mice were used for PET imaging study. A diagnostic tracer and drug were injected approximately 2 weeks after the establishment of the tumor model.
(§2) Peptide conjugate P144-DOTA and the radiolabeled tracer [^68Ga]Ga-P144 were both administrated through tail vein injection. The chemical dose of [^68Ga]Ga-P144 was 1 mg/kg, and the radioactive dose was approximately 3.7 MBq in 200 μL per mouse. As a competitive blocker with the same target TGFβ, the dose of DOTA-P144 was 100 mg/kg (47.3 μmol/kg, 100 times the mass dose of the radiolabeled peptide conjugate), and the administration of this unlabeled peptide conjugate was followed after 10 min by 1 mg/kg of the radiolabeled tracer [^68Ga]Ga-P144. All the mice were deprived of food and water for 1 h before drug administration. Then, the mice were anesthetized with pentobarbital sodium (45 mg/kg) and scanned with microPET. After the last scanning, the mice were anesthetized with 2% pentobarbital sodium at 65 mg/kg intraperitoneally and then executed by dislocation of their cervical vertebra, and the tissues were harvested for analysis.
(§3) The tumor-bearing mice were anesthetized with pentobarbital sodium before microPET scanning. Each mouse was intravenously injected with approximately 3.7 MBq (90–120 μCi) of [^68Ga]Ga-P144. After administration, the mice were scanned by a small animal PET system (Inveon, Siemens, Munich, Germany). The body temperature of the mice was monitored by a rectal probe and kept at 37°C by a heated air stream. The scanning time was set as follows: static PET scanning for 10 min and scanning energy window 350–650 keV at four time points (1 h, 2 h, 3 h, and 4 h) after the injection. MicroPET image reconstruction was performed using a 3D OSEM PSF algorithm with five iterations. Images were processed and analyzed using PMOD4.2 software (PMOD Technologies Ltd., Zurich, Switzerland). Regions of interest (ROIs) of the brain, heart, liver, lungs, kidney, muscle, and tumor were delineated. Radioactivity values of the ROIs per unit volume were obtained, and the percentage of injected dose per tissue weight in gram (%ID/g) values of the different organs and tissues were calculated as follows:
(§4) %ID/g=radiouptake in ROI(kBq/g)/injection dose(kBq)×100.

[2] = tested on: PANC-1 tumor-bearing mice; experiment: in vivo; conditions: mouse
Experimental: as §1, §2, §3, §4

[3] = Radio-HPLC radiochemical purity after standing at room temperature (stability); assay type: physicochemical; conditions: C18, room temperature, 4 h after synthesis
Experimental: Radio-HPLC and radio-iTLC assays were conducted for the quality control of product [^68Ga]Ga-DOTA-P144 and free [^68Ga] ions. American alltech1500 high-performance liquid chromatography and online radioactive detector were used. Chromatographic column: YMC-Pack Pro C18 RS (5 μm, 250 mm × 4.6 mm). Mobile phase: A) water + 0.1% formic acid; B) acetonitrile. Method: 0 min, 95% A and 5% B; 1 min, 95% A and 5% B; 10 min, 70% A and 30% B; 18 min, 70% A and 30% B; 25 min, 95% A and 5% B; flow speed, 1 mL/min. The quality control standard was that the chemical and radiochemical purities of the products were greater than 95%. Radio-iTLC analytical quantification methods/conditions were as follows. The stationary phase was iTLC glass fiber (1 cm × 8 cm instant silica gel strip), and the developing solvent was 2 mM of sodium citrate/citric acid buffer solution (pH 6.5). performed according to General Rule 1401 in Chinese Pharmacopoeia (2020 Edition), the method for the determination of radioactive drugs, the Rf value of the radioactive peak of the product to be tested was approximately 0.1–0.4, and there was a single main peak under normal conditions. If there were impurities, especially free [^68Ga] ions, the corresponding peaks should appear at the Rf value of approximately 0.6–0.8. […]

in vivo [4] = conditions: nude, mouse, iv, 1 mg/kg, total radioactivity; remark: listed apart in the source
Experimental: as §2, with “After the last scanning, the mice were anesthetized with 2% pentobarbital sodium at 65 mg/kg intraperitoneally and then executed by dislocation of their cervical vertebra, and the tissues were harvested for analysis.” left out
The tumor-bearing mice were anesthetized with pentobarbital sodium before microPET scanning. […] The body temperature of the mice was monitored by a rectal probe and kept at 37°C by a heated air stream. […] Images were processed and analyzed using PMOD4.2 software (PMOD Technologies Ltd., Zurich, Switzerland). […] Radioactivity values of the ROIs per unit volume were obtained, and the percentage of injected dose per tissue weight in gram (%ID/g) values of the different organs and tissues were calculated as follows: […]

PC3 cells = experiment: Cell uptake (internalization) assay in PC3 cells; assay type: cell-based; conditions: 200 MBq/L, 0.5-5 h incubation, FCS-free medium, γ-counter, three series
Experimental: (§5) The method process for cell uptake assay of radiolabeled drug was as follows. First, the selected cell lines were inoculated into a 6-well plate, incubated for 48 h to achieve a cell coverage rate of approximately 80%–90% (1.2–2 × 10^6 cells/well), and replaced with 1 mL of fresh culture medium without fetal calf serum (FCS). Then, a certain amount of radionuclide-labeled drug (200 MBq/L) was added to the culture well and incubated for different times (0.5–5 h). The culture medium containing the drug was removed, and the cells were washed twice with 1 mL of phosphate-buffered saline (PBS) (pH 7.4). Cells were incubated with 1 mL of glycine HCl solution (1 M, pH 2.2) at room temperature for 10 min to remove surface binding, and the cells were washed with 2 mL of ice-cold PBS (collect washing solution for detection of binding amount). After that, 1.4 mL of lysis buffer (0.3 M of NaOH, 0.2% sodium dodecyl sulfate (SDS)) was used to lyse the cells and collect this lysate. With a γ-counter, the radioactive activity in the collected lysate was measured, and the %AD value was calculated. One mio (1 × 10^6) of cells was adopted for normalization, with the result representing the internalization uptake level of the tested radiopharmaceutical by this cell line. Each experiment was repeated three times independently, with three multiple wells set at each processing time point.

PANC-1 cells = experiment: Cell uptake (internalization) assay in PANC-1 cells; assay type: cell-based, human; conditions: 200 MBq/L, 0.5-5 h incubation, FCS-free medium, γ-counter, %AD per 1 × 10^6 cells, three series
Experimental: as §5

in vivo [5] = conditions: nude, mouse, iv, 1 mg/kg, total radioactivity; remark: listed apart in the source
Experimental: For biodistribution assay ex vivo, the PANC-1 tumor model mice were euthanized by pentobarbital sodium at 1 h after tracer administration. The blood was harvested via cardiac puncture, and the different organs/tissues were isolated, weighed, and counted on a γ-counter for radioactivity. The amount of the injected radiotracer was measured and used to determine the total number of counts of nuclei decay per minute (CPM) by comparison with a standard of known activity. The data were background- and decay-corrected and expressed as percentages of the injection dose per tissue weight in grams (%ID/g).

human glioblastoma cells = conditions: ref [28]; cited from earlier work
Excerpt: TGFβ-specific blocking peptide P144 selected in this study was an analog of the essential structure for ligand recognition and binding in the extracellular domain of TGFβR3, which has high specificity and affinity to TGFβ ([36]). […] The doses of th ...

`CC[C@H](C)[C@H](NC(=O)[C@H](CO)NC(=O)[C@H](C)NC(=O)[C@H](CC(=O)O)NC(=O)[C@H](CC(C)C)NC(=O)[C@H](CO)NC(=O)[C@@H](NC(=O)CCOCCOCCOCCNC(=O)CN1CCN(CC(=O)O)CCN(CC(=O)O)CCN(CC(=O)O)CC1)[C@@H](C)O)C(=O)N[C@@H](Cc1c[nH]c2ccccc12)C(=O)N[C@@H](C)C(=O)N[C@@H](CCSC)C(=O)N[C@@H](CCSC)C(=O)N[C@@H](CCC(N)=O)C(=O)N[C@@H](CC(N)=O)C(=O)N[C@@H](C)C(N)=O` [[^68Ga]Ga-P144, metal not drawn] ({DOTA-PEG3}-TSLDASIWAMMQNA-NH2; N-terminus and C-terminus assumed) gave a tissue to tissue ratio at 1 h (in vivo [1]) of 3.44 ± 1.53, a tissue to tissue ratio at 4 h (in vivo [1]) of 3.77 ± 1.18 and a tissue uptake at 1 h (in vivo [1]; uptake in heart) of 5.74 ± 1.68 %ID/g. It also gave a tissue uptake at 4 h (in vivo [1]; uptake in heart) of 3.92 ± 0.891 %ID/g, a tissue uptake at 1 h (in vivo [1]; uptake in kidneys) of 3.32 ± 0.636 %ID/g and a tissue uptake at 4 h (in vivo [1]; uptake in kidneys) of 2.8 ± 0.281 %ID/g. It also gave a tissue uptake at 1 h (in vivo [1]; uptake in liver) of 4.01 ± 0.975 %ID/g, a tissue uptake at 4 h (in vivo [1]; uptake in liver) of 2.91 ± 0.431 %ID/g and a tissue uptake at 1 h (in vivo [1]; uptake in lung) of 3.56 ± 0.739 %ID/g. It also gave a tissue uptake at 4 h (in vivo [1]; uptake in lung) of 2.19 ± 0.206 %ID/g, a tissue uptake at 1 h (in vivo [1]; uptake in tumors) of 5.76 ± 1.21 %ID/g and a tissue uptake at 4 h (in vivo [1]; uptake in tumors) of 6.02 ± 1.37 %ID/g. The tumor retention time [2] was over 4 h, the “radiochemical purity after purification and placement at room temperature for 4 h” value [3] was 98.87% and the tissue uptake at 1 h (in vivo [4]) was 5.36 ± 0.937 %ID/g. For the same compound, the “cell uptake ratio (non-specific cellular uptake)” value (PC3 cells) was “very low level”, the “cell uptake ratio (internalization)” value (PANC-1 cells) was “high and persistent” and the tissue uptake at 1 h (in vivo [5]; ex vivo radioactive biodistribution in heart) was 4.89 ± 0.899 %ID/g. For the same compound, the tissue uptake at 1 h (in vivo [5]; ex vivo radioactive biodistribution in kidney) was 2.98 ± 0.854 %ID/g, the tissue uptake at 1 h (in vivo [5]; ex vivo radioactive biodistribution in liver) was 1.95 ± 0.717 %ID/g and the tissue uptake at 1 h (in vivo [5]; ex vivo radioactive biodistribution in lung) was 3.16 ± 0.429 %ID/g. For the same compound, the tissue uptake at 1 h (in vivo [5]; ex vivo radioactive biodistribution in tumors) was 4.63 ± 1.22 %ID/g.
For TSLDASIWAMMQNA [P144], the “growth and proliferation of human glioblastoma cells” value (human glioblastoma cells) is listed as “significantly inhibit”.
